One block for each binder: values may come before it.
Tests used:
[1] = biological target: T1, biotinylated recombinant human TNFRSF25-His tagged (Acro #TN5-H52H3) (human, UniProt Q93038 25-199, biotinylated); test: MSD competition; scFv supernatant serially diluted on TNFRSF25-coated plate, then TL1A added and the remaining TL1A detected
T1 construct: treated as the same protein; also called recombinant biotin-conjugated human TNFRSF25 protein; DR3
T1 sequence (looked up): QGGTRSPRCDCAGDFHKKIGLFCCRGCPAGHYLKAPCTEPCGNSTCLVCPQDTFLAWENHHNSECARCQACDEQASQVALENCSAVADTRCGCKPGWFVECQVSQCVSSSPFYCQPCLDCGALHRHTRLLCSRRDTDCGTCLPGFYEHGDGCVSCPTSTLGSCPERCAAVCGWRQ
Description: (FIG. 2A) TNFRSF25 was precoated on MSD assay plates followed by adding scFv supernatant at 2-fold serial-dilutions followed by detection of the myc tag present on the C-terminus of the scFv's. (FIG. 2B) scFv supernatant were serially diluted and added to an MSD-plate pre-coated with TNFRSF25.

[2] = biological target: T1, biotinylated recombinant human …; test: BLI/Octet; biotinylated TNFRSF25 on streptavidin sensor, mAb in solution; 1:1 Langmuir model
Description: Provided herein are monoclonal and biparatopic antibodies that specifically target human TNFRSF25. The monoclonal antibodies were produced in an engineered CHOK1 cell-line by transfecting the cells with vectors genetically encoding the Heavy and Light chain antibody sequences followed by a single-step affinity-capture chromatography using FcXL resins. The final monoclonal antibody preparation was buffer exchanged into PBS, pH 7.4. Production of biparatopic antibodies followed a two-step process. In the first step of the process, the so called Knob-half (or Hole-half) antibody was produced by transfecting an engineered CHOK1 cell-line with vectors genetically encoding the Knob (or the Hole) Heavy chain and the corresponding Light chain sequences. The CHOK1-cell-harvest from the Knob-half antibody and Hole half-antibody was then purified by Protein A column-based chromatography. In the second step of the process, the two half-antibodies were reassembled into the desired biparatopic format by the use of a mild reduction step followed by quenching the reaction with buffer exchange into PBS, pH 7.4. To detect binding of the antibodies to human TNFRSF25, recombinant biotin-conjugated human TNFRSF25 protein was immobilized onto a streptavidin-coated MSD (Meso Scale Discovery) plate and allowed to bind the anti-TNFRSF25 mAbs in solution. Following a washing step, the bound antibodies were detected using a sulfo-tagged anti-human Fc antibody. The results of these MSD assays are shown in arbitrary units (au) on the y-axis of FIG. 1. To determine the binding affinity of the antibodies to recombinant human TNFRSF25 protein, recombinant biotin-conjugated human TNFRSF25 protein was immobilized onto a streptavidin-coated BLI sensor and allowed to bind the anti-TNFRSF25 mAbs in solution phase. The binding affinity (K_D) was calculated using the on-rates (Ka) and off-rates (Kd) of mAb binding to the target using a 1:1 Langmuir binding model in the ForteBio data analysis software.

[3] = biological target: FcγR1 (CD64), BLI reagent (UniProt P12314 16-288, limits assumed); test: BLI; antibody as analyte at 300 nM on FcγR1
FcγR1 (CD64), BLI reagent, sequence (P12314 16-288 limits assumed): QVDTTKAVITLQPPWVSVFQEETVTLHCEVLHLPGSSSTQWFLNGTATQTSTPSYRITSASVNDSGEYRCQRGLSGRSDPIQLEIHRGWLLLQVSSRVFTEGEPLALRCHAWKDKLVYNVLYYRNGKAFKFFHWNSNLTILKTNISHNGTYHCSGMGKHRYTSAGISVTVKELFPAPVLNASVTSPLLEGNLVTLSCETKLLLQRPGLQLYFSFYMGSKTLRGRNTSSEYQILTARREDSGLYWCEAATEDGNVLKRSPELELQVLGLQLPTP

[4] = biological target: T2, biotinylated recombinant human FcRn-His tagged protein (Acro #FCM-H82W7) (human, UniProt P55899 24-297; P61769 21-119, biotinylated); test: BLI/Octet; biotinylated human FcRn-His on streptavidin biosensor
T2 construct: also called hFcRn; neonatal Fc receptor
Experimental: (§1) Figure 5D: FIG. 5D. FcRn binding kinetics by anti-TNFRSF25 antibodies. BLI assay was performed using the Octet Red 96e instrument. Streptavidin biosensors were loaded with biotinylated recombinant human(h) FcRn-His tagged protein (Acro #FCM-H82W7) as the ligand. During the association phase, biosensors were incubated with anti-DR3 candidate antibodies at various concentrations for 600 seconds, followed by a 600-second dissociation phase.
(§2) To detect binding of certain whole antibodies to the neonatal Fc receptor (FcRn) at neutral and acidic pH conditions, streptavidin biosensors were loaded with biotinylated recombinant human FcRn-His tagged protein (Acro #FCM-H82W7) as the ligand. During the association phase, biosensors were incubated with anti-TNFRSF25 antibodies at various concentrations for 600 seconds, followed by a 600 second dissociation phase.

[5] = biological target: T2, biotinylated recombinant human FcRn-His …; test: BLI/Octet; biotinylated human FcRn-His on streptavidin biosensor; pH 6.0
Experimental: as §1, §2

[6] = biological target: T1, biotinylated recombinant human …; test: MSD competition (lower panel); antibody on TNFRSF25-coated plate, wash, then TL1A-rabbit Fc at 0.4 ug/ml, sulfo-tag anti-rabbit detection; raw MSD signal
Experimental: (§3) Figure 6: FIG. 6. […] Human TNFRSF25 was precoated on MSD assay plates followed by incubating with various concentrations of anti-TNFRSF25 antibodies.

[7] = biological target: T2, biotinylated recombinant human FcRn-His …; test: BLI/Octet; biotinylated human FcRn-His on streptavidin biosensor; pH 7.4
Experimental: as §1, §2

[8] = biological target: T1, biotinylated recombinant human …; test: MSD competition; TNFRSF25 on plate, antibody titrated, then TL1A-rabbit Fc 0.4 µg/ml as competitor
Experimental: as §3

[9] = biological target: T1, biotinylated recombinant human …; test: BLI/Octet Red 96e; biotinylated TNFRSF25-His on streptavidin biosensor; 600 s association, 600 s dissociation
Experimental: Figure 4: FIG. 4. TNFRSF25 binding affinity of anti-TNFRSF25 antibodies. BLI assay was performed using the Octet Red 96e instrument. Streptavidin biosensors were loaded with biotinylated recombinant human TNFRSF25-His tagged (Acro #TN5-H52H3) as the ligand. During the association phase, biosensors were incubated with anti-TNFRSF25 antibodies at various concentrations for 600 seconds, followed by a 600-second dissociation phase.
as §2, with “human TNFRSF25,” for “the neonatal Fc receptor (FcRn) at neutral and acidic pH conditions,”, “TNFRSF25-His” for “FcRn-His”, “tagged” for “tagged protein”, “#TN5-H52H3)” for “#FCM-H82W7)”

B1: NH24-47 (scFv, not shown: small tags and cut ends)
scFv: EVQLVESGGGSVQPGGSLRLSCAASGFTFSSYGMSWVRQAPGKGLEWISYISSSGGHTYYADSVKGRFTISRDNAKNSLYLQMNSLRAEDTAVYYCARYSGAFDRWGQGTPVTVSSGGRGSGGGGSGSGGSDIVMTQSPSSLSASVGDRVTITCQASQDISNYLSWYQQKPGKAPKLLISDASNLETGVPSRFSGSGSGTDFTFTISSLQPEDIATYYCQQYDNLPITFGQGTRLEIKR
notes: one of the four variants of group m25; used as unpurified E. coli supernatant; the sheet prints NH24-47; also called NH24-47 scFv
- binding result [1]: binds

B3: SL-034 (antibody, human IgG1, kappa, L234A L235A, N297A)
heavy: QVQLQQSGPGLVKPSQTLSLTCAISGDSVSGYSAAWNWIRQSPSRGLEWLGRTYYRSKWYNDYAVSVKSRITINPDTSKNQFSLQLNSVTPEDTAVYYCARDYYGSESYYNRGYYYYGMDVWGQGTTVTVSSASTKGPSVFPLAPSSKSTSGGTAALGCLVKDYFPEPVTVSWNSGALTSGVHTFPAVLQSSGLYSLSSVVTVPSSSLGTQTYICNVNHKPSNTKVDKKVEPKSCDKTHTCPPCPAPEAAGGPSVFLFPPKPKDTLMISRTPEVTCVVVDVSHEDPEVKFNWYVDGVEVHNAKTKPREEQYASTYRVVSVLTVLHQDWLNGKEYKCKVSNKALPAPIEKTISKAKGQPREPQVYTLPPSREEMTKNQVSLTCLVKGFYPSDIAVEWESNGQPENNYKTTPPVLDSDGSFFLYSKLTVDKSRWQQGNVFSCSVMHEALHNHYTQKSLSLSPGK
light: AIQLTQSPSSLSASVGDRVTITCRASPGISSALAWYQQKPGKAPKLLMYDESSQESGVPSRFSGSGSGTDFTLTISSLQPEDFATYYCQQFNDYPLTFGGGTKVEIKRTVAAPSVFIFPPSDEQLKSGTASVVCLLNNFYPREAKVQWKVDNALQSGNSQESVTEQDSKDSTYSLSSTLTLSKADYEKHKVYACEVTHQGLSSPVTKSFNRGEC
notes: Same variable regions as SL-033; also called clone 034; L234A/L235A+N297A
- Kd [2]: < 1 nM
- binding result [3]: no binding (tested: 300 nM)

B5: SL-038 (antibody, human IgG1, kappa, L234A L235A, V domains shown)
VH: EVQLVESGGGLSQPGNSLQLSCEASGFTFSNHDMNWVRQAPGKGLEWVAYISSASGLISYADSVRGRFTISRDNAKNSLFLQMNNLKSEDTAMYYCARDPAYSGNYALDFWGQGTQVTVSS
VL: QPVLTQSPSASASLSGSVKLTCTLSSELSSYTIVWYQQQPDKAPKYVMYLKSDGSHGKGDGIPDRFSGSSSGAHRYLSVSNVQSEDDATYFCGAGYTLAGQYGWVFGSGTKVTVLR
- Kd [2]: 3.6 nM

B6: NH46 (whole antibody) (antibody, human IgG1, kappa, V domains shown)
VH: QVQLVQSGSEVKKPGASVRVSCKVSGSTVKELSMHWVRQAPGKGLEWMGGYDPEDGESIFAQKFQGRVNMTEDRSTDTAYMELSSLRSEDTAVYYCATDLNWEDAFDVWGQGTMVTVSS
VL: QSVLTQPPSVSAAPGQKVTISCSGSGSNIGNYYVAWYQQFPGTAPKLLIYDNNKRPSGIPDRFSGSKSGTSATLGITGLQTGDEADYYCGTWDTSLTAGDIYVFGTGTKVTVLR
- Kd [2]: 0.185 nM
- IC50 [8]: 0.26 nM
- Response (RU) [9]: 1.06 RU
- koff [9]: 8.54e-05 s⁻¹
- kon [9]: 452000 M⁻¹ s⁻¹

B7: NH24 (whole antibody) (antibody, human IgG1, kappa, V domains shown)
VH: EVQLVESGGGSVQPGGSLRLSCAASGFTFSSYGMSWIRQAPGKGLEWISYISSSGGHTYYADSVKGRFTISRDNAKNSLYLQMNSLRAEDTAVYYCARGSGSFDYWGQGTLVTVSS
VL: DIVMTQSPSSLSASVGDRVTITCQASQDITNYLSWYQQKPGKAPKLLISDASNLETGIPSRFSGSGSGTDFTFTISSLQPEDIATYYCQQYDTLPITFGQGTRLEIKR
- Kd [2]: 0.59 nM
- IC50 [8]: 39.4 nM
- Response (RU) [9]: 0.73 RU
- koff [9]: 0.000742 s⁻¹
- kon [9]: 1.26e+06 M⁻¹ s⁻¹

Next, values leading:

- binding result [1]: binds
B2: NH24-72 (scFv, not shown: small tags and cut ends)
scFv: EVQLVESGGGSVQPGGSLRLSCAASGFTFSSYGMNWIRQAPGKGLEWITYISSSGGHTYYADSVKGRFTISRDNAKNSLYLQMNSLRAEDTAVYYCARGQGPFEYWGQGTLVTVSSGGRGSGGGGSGSGGSDIVMTQSPSSLSASVGDRVTITCQASQDISNYLSWYQQKPGKAPKLLINDASNLETGVPSRFSGSGSGTDFTFTISSLQPEDIATYYCQQYDNLPITFGQGTRLEIKR
notes: one of the four variants of group m25; used as unpurified E. coli supernatant; the sheet prints NH24-72; also called NH24-72 scFv

- fold improvement in binding affinity at pH 6.0 compared to pH 7.4 [4]: ~10 fold
- Kd [5]: 0.879 nM
- koff [5]: 0.000181 s⁻¹
- kon [5]: 206000 M⁻¹ s⁻¹
- IC50 (read off the curve) [6]: ~0.2 nM
- Kd [7]: 6.78 nM
- koff [7]: 0.00144 s⁻¹
- kon [7]: 213000 M⁻¹ s⁻¹
B4: SL-061_LS (antibody, human IgG1, kappa)
heavy: QVQLQQSGPGLVKPSQTLSLTCAISGDSVSGYSAAWNWIRQSPSRGLEWLGRTYYRSKWYNDYAVSVKSRITINPDTSKNQFSLQLNSVTPEDTAVYYCARDYYGSESYYNRGYYYYGMDVWGQGTTVTVSSASTKGPSVFPLAPSSKSTSGGTAALGCLVKDYFPEPVTVSWNSGALTSGVHTFPAVLQSSGLYSLSSVVTVPSSSLGTQTYICNVNHKPSNTKVDKKVEPKSCDKTHTCPPCPAPEAAGAPSVFLFPPKPKDTLMISRTPEVTCVVVDVSHEDPEVKFNWYVDGVEVHNAKTKPREEQYNSTYRVVSVLTVLHQDWLNGKEYKCKVSNKALPAPIEKTISKAKGQPREPQVYTLPPSREEMTKNQVSLTCLVKGFYPSDIAVEWESNGQPENNYKTTPPVLDSDGSFFLYSKLTVDKSRWQQGNVFSCSVLHEALHSHYTQKSLSLSPGK
light: AIQLTQSPSSLSASVGDRVTITCRASPGISSALAWYQQKPGKAPKLLMYDESSQESGVPSRFSGSGSGTDFTLTISSLQPEDFATYYCQQFNDYPLTFGGGTKVEIKRTVAAPSVFIFPPSDEQLKSGTASVVCLLNNFYPREAKVQWKVDNALQSGNSQESVTEQDSKDSTYSLSSTLTLSKADYEKHKVYACEVTHQGLSSPVTKSFNRGEC
notes: SL-061 with LS half-life extension changes in the Fc

Reference: patent US12319742 (SHATTUCK LABS, dated 2025)
